From paper PMC2441797 come the findings set out here.

In this series the target is recombinant PARP-1 (rPARP-1) (UniProt P09874 1-1014). The series is described as follows: Southwestern blot.
recombinant PARP-1 (rPARP-1), sequence (P09874 whole entry): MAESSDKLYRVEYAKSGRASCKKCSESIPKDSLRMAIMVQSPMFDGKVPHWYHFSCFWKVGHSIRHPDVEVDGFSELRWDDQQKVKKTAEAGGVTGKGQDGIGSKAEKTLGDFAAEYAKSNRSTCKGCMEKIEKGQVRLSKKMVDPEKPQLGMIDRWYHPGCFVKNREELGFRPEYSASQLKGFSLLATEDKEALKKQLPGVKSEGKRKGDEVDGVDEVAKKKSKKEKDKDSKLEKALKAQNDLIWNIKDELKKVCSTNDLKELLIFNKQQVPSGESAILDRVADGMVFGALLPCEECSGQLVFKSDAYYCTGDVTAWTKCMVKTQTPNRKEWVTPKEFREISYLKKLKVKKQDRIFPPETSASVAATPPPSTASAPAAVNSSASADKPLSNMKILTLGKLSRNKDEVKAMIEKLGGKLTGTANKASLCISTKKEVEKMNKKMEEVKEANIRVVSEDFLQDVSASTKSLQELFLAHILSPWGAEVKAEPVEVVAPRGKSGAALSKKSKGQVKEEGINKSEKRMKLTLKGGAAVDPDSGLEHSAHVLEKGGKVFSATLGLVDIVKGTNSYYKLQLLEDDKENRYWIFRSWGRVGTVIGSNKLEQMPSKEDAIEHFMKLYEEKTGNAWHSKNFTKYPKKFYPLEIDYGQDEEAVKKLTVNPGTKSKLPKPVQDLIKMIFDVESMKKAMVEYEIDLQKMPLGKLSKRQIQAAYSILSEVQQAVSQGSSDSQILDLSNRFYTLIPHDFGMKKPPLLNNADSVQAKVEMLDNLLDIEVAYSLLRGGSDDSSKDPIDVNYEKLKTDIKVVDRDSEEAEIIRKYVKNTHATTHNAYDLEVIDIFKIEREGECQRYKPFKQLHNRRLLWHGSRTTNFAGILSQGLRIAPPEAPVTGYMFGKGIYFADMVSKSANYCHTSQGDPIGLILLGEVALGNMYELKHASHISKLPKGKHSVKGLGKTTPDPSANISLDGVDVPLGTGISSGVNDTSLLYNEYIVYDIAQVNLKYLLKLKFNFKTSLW

B1: 32R (KRAS NHE G-quadruplex), radiolabelled (structured_DNA)
DNA: AGGGCGGTGTGGGAAGAGGGAAGAGGGGGAGG
Turning to B1, the binding result is “binds”.
